T1: human PVR (SPR of the humanized variants, Example 5) (human, UniProt P15151 21-343)
T1 sequence: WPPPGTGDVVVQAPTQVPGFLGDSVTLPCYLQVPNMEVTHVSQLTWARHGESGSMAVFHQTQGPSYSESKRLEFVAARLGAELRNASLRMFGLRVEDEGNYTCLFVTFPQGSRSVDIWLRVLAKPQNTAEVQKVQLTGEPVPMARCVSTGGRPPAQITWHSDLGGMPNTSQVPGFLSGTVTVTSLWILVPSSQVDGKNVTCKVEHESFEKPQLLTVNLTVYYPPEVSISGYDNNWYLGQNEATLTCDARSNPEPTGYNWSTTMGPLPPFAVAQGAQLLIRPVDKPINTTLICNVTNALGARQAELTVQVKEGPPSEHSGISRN


Tests used:
[1] = biological target: T1, human PVR (SPR of the humanized …); assay: SPR; relative to N56E VH0/Vκ0
[2] = biological target: T1, human PVR (SPR of the humanized …); assay: SPR
[3] = biological target: human poliovirus receptor (PVR, CD155) expressed on cells (human) (UniProt P15151); assay: flow cytometry, binding to PVR-expressing HEK 293 cells
[4] = biological target: human poliovirus receptor (PVR, CD155) expressed on cells (human) (UniProt P15151); assay: flow cytometry, binding to PVR-expressing HEK 293 cells; relative to N56E VH0/Vκ0

Relative KD [1] | Kd [2] [nM] | EC50 [3] [nM] | Relative EC50 [4] | Binder
0.78 | 4.32 | 0.52 | 0.66 | humanized 5B9 variant VH3/VK2 (antibody, V domains shown) VH: QVQLVQSGAEVKKPGASVKVSCKATGYTFSNYWIEWIKQAPGQGLEWIGEIFPGSGRINFNEKFKGRVTFTADTSISTTYMELSRLRSDDTAVYYCARTKIYGNSFDYWGQGTLVTVSS VL: DIQMTQSPSSLSASVGDRVTITCKASQDVGTAVVWYQQKPGKAPKLLIYWASSRHEGVPDRFSGSGSGTDFTLTISSLQPEDFADYFCQQYSRYPLTFGQGTKLEIK
0.75 | 4.17 |  |  | humanized 5B9 variant VH1/VK1 (antibody, V domains shown) VH: QVQLVQSGAELKKPGASVKISCKATGYTFSNYWIEWIKQAPGQGLEWIGEIFPGSGRINFNEKFKGRATFTADTSIDTTYMQLSSLTSDDSAVYYCARTKIYGNSFDYWGQGTTVTVSS VL: DIMMTQSPSFLSASVGDRVTITCKASQDVGTAVVWYQQKPGKAPKLLIYWASSRHEGVPDRFTGSGSGTDFTLTISSLQSEDFADYFCQQYSRYPLTFGQGTKLEIK
0.73 | 4.03 |  |  | IgG4(S241P)_N56E_VH0/Vκ1 (antibody, V domains shown, half-humanized control pairing; also called VH0/Vk1) VH: QVQLQQSGAELMKPGASVKISCKATGYTFSNYWIEWIKQRPGHGLEWIGEIFPGSGRINFNEKFKGKATFTADTSSDTTYMQLSSLTSADSAVYYCARTKIYGNSFDYWGQGTTLTVSP VL: DIMMTQSPSFLSASVGDRVTITCKASQDVGTAVVWYQQKPGKAPKLLIYWASSRHEGVPDRFTGSGSGTDFTLTISSLQSEDFADYFCQQYSRYPLTFGQGTKLEIK
12.5 | 69.3 |  |  | IgG4(S241P)_N56E_VH1/Vκ4 (antibody, V domains shown, humanized 5B9 variant with Vk4; also called VH1/Vk4) VH: QVQLVQSGAELKKPGASVKISCKATGYTFSNYWIEWIKQAPGQGLEWIGEIFPGSGRINFNEKFKGRATFTADTSIDTTYMQLSSLTSDDSAVYYCARTKIYGNSFDYWGQGTTVTVSS VL: DIQMTQSPSSLSASVGDRVTITCRASQDVGTAVAWYQQKPGKAPKSLIYWASSRHEGVPSRFSGSGSGTDFTLTISSLQPEDFATYFCQQYSRYPLTFGQGTKLEIK
13.9 | 76.8 |  |  | IgG4(S241P)_N56E_VH5/Vκ4 (antibody, V domains shown, humanized 5B9 variant with Vk4; also called VH5/Vk4) VH: QVQLVQSGAEVKKPGASVKVSCKATGYTFSNYWIEWVRQAPGQGLEWMGEIFPGSGRINFNEKFKGRVTFTADTSISTAYMELSRLRSDDTAVYYCARTKIYGNSFDYWGQGTLVTVSS VL: DIQMTQSPSSLSASVGDRVTITCRASQDVGTAVAWYQQKPGKAPKSLIYWASSRHEGVPSRFSGSGSGTDFTLTISSLQPEDFATYFCQQYSRYPLTFGQGTKLEIK
13.6 | 75.2 |  |  | IgG4(S241P)_N56E_VH3/Vκ4 (antibody, V domains shown, humanized 5B9 variant with Vk4, as IgG4; also called VH3/Vk4) VH: QVQLVQSGAEVKKPGASVKVSCKATGYTFSNYWIEWIKQAPGQGLEWIGEIFPGSGRINFNEKFKGRVTFTADTSISTTYMELSRLRSDDTAVYYCARTKIYGNSFDYWGQGTLVTVSS VL: DIQMTQSPSSLSASVGDRVTITCRASQDVGTAVAWYQQKPGKAPKSLIYWASSRHEGVPSRFSGSGSGTDFTLTISSLQPEDFATYFCQQYSRYPLTFGQGTKLEIK
0.83 | 4.62 |  |  | humanized 5B9 variant VH4/VK1 (antibody, V domains shown) VH: QVQLVQSGAEVKKPGASVKVSCKATGYTFSNYWIEWVRQAPGQGLEWIGEIFPGSGRINFNEKFKGRVTFTADTSISTTYMELSRLRSDDTAVYYCARTKIYGNSFDYWGQGTLVTVSS VL: DIMMTQSPSFLSASVGDRVTITCKASQDVGTAVVWYQQKPGKAPKLLIYWASSRHEGVPDRFTGSGSGTDFTLTISSLQSEDFADYFCQQYSRYPLTFGQGTKLEIK
14.1 | 78.3 |  |  | IgG4(S241P)_N56E_VH2/Vκ4 (antibody, V domains shown, humanized 5B9 variant with Vk4; also called VH2/Vk4) VH: QVQLVQSGAEVKKPGASVKISCKATGYTFSNYWIEWIKQAPGQGLEWIGEIFPGSGRINFNEKFKGRATFTADTSIDTTYMELSRLRSDDTAVYYCARTKIYGNSFDYWGQGTLVTVSS VL: DIQMTQSPSSLSASVGDRVTITCRASQDVGTAVAWYQQKPGKAPKSLIYWASSRHEGVPSRFSGSGSGTDFTLTISSLQPEDFATYFCQQYSRYPLTFGQGTKLEIK
0.72 | 4.01 |  |  | humanized 5B9 variant VH1/VK2 (antibody, V domains shown) VH: QVQLVQSGAELKKPGASVKISCKATGYTFSNYWIEWIKQAPGQGLEWIGEIFPGSGRINFNEKFKGRATFTADTSIDTTYMQLSSLTSDDSAVYYCARTKIYGNSFDYWGQGTTVTVSS VL: DIQMTQSPSSLSASVGDRVTITCKASQDVGTAVVWYQQKPGKAPKLLIYWASSRHEGVPDRFSGSGSGTDFTLTISSLQPEDFADYFCQQYSRYPLTFGQGTKLEIK
0.93 | 5.14 | 0.6 | 0.76 | humanized 5B9 variant VH2/VK3 (antibody, V domains shown) VH: QVQLVQSGAEVKKPGASVKISCKATGYTFSNYWIEWIKQAPGQGLEWIGEIFPGSGRINFNEKFKGRATFTADTSIDTTYMELSRLRSDDTAVYYCARTKIYGNSFDYWGQGTLVTVSS VL: DIQMTQSPSSLSASVGDRVTITCRASQDVGTAVVWYQQKPGKAPKLLIYWASSRHEGVPSRFSGSGSGTDFTLTISSLQPEDFATYFCQQYSRYPLTFGQGTKLEIK
0.82 | 4.56 |  |  | humanized 5B9 variant VH3/VK1 (antibody, V domains shown) VH: QVQLVQSGAEVKKPGASVKVSCKATGYTFSNYWIEWIKQAPGQGLEWIGEIFPGSGRINFNEKFKGRVTFTADTSISTTYMELSRLRSDDTAVYYCARTKIYGNSFDYWGQGTLVTVSS VL: DIMMTQSPSFLSASVGDRVTITCKASQDVGTAVVWYQQKPGKAPKLLIYWASSRHEGVPDRFTGSGSGTDFTLTISSLQSEDFADYFCQQYSRYPLTFGQGTKLEIK
0.9 | 4.98 |  |  | humanized 5B9 variant VH1/VK3 (antibody, V domains shown) VH: QVQLVQSGAELKKPGASVKISCKATGYTFSNYWIEWIKQAPGQGLEWIGEIFPGSGRINFNEKFKGRATFTADTSIDTTYMQLSSLTSDDSAVYYCARTKIYGNSFDYWGQGTTVTVSS VL: DIQMTQSPSSLSASVGDRVTITCRASQDVGTAVVWYQQKPGKAPKLLIYWASSRHEGVPSRFSGSGSGTDFTLTISSLQPEDFATYFCQQYSRYPLTFGQGTKLEIK
0.81 | 4.5 |  |  | IgG4(S241P)_N56E_VH1/Vκ0 (antibody, V domains shown, half-humanized control pairing; also called VH1/Vk0) VH: QVQLVQSGAELKKPGASVKISCKATGYTFSNYWIEWIKQAPGQGLEWIGEIFPGSGRINFNEKFKGRATFTADTSIDTTYMQLSSLTSDDSAVYYCARTKIYGNSFDYWGQGTTVTVSS VL: DIMMTQSHKFMSTSVGDRVNITCKASQDVGTAVVWYQQKPGQSPKLLIYWASSRHEGVPDRFTGSGSGTDFTLTISNVQSEDLSDYFCQQYSRYPLTFGAGTKLELK
0.98 | 5.42 | 0.53 | 0.68 | humanized 5B9 variant VH3/VK3 (antibody, V domains shown) VH: QVQLVQSGAEVKKPGASVKVSCKATGYTFSNYWIEWIKQAPGQGLEWIGEIFPGSGRINFNEKFKGRVTFTADTSISTTYMELSRLRSDDTAVYYCARTKIYGNSFDYWGQGTLVTVSS VL: DIQMTQSPSSLSASVGDRVTITCRASQDVGTAVVWYQQKPGKAPKLLIYWASSRHEGVPSRFSGSGSGTDFTLTISSLQPEDFATYFCQQYSRYPLTFGQGTKLEIK
1.07 | 5.91 |  |  | humanized 5B9 variant VH5/VK1 (antibody, V domains shown) VH: QVQLVQSGAEVKKPGASVKVSCKATGYTFSNYWIEWVRQAPGQGLEWMGEIFPGSGRINFNEKFKGRVTFTADTSISTAYMELSRLRSDDTAVYYCARTKIYGNSFDYWGQGTLVTVSS VL: DIMMTQSPSFLSASVGDRVTITCKASQDVGTAVVWYQQKPGKAPKLLIYWASSRHEGVPDRFTGSGSGTDFTLTISSLQSEDFADYFCQQYSRYPLTFGQGTKLEIK
0.84 | 4.67 | 0.64 | 0.81 | humanized 5B9 variant VH2/VK2 (antibody, V domains shown) VH: QVQLVQSGAEVKKPGASVKISCKATGYTFSNYWIEWIKQAPGQGLEWIGEIFPGSGRINFNEKFKGRATFTADTSIDTTYMELSRLRSDDTAVYYCARTKIYGNSFDYWGQGTLVTVSS VL: DIQMTQSPSSLSASVGDRVTITCKASQDVGTAVVWYQQKPGKAPKLLIYWASSRHEGVPDRFSGSGSGTDFTLTISSLQPEDFADYFCQQYSRYPLTFGQGTKLEIK
0.92 | 5.11 | 0.59 | 0.75 | humanized 5B9 variant VH4/VK3 (antibody, V domains shown) VH: QVQLVQSGAEVKKPGASVKVSCKATGYTFSNYWIEWVRQAPGQGLEWIGEIFPGSGRINFNEKFKGRVTFTADTSISTTYMELSRLRSDDTAVYYCARTKIYGNSFDYWGQGTLVTVSS VL: DIQMTQSPSSLSASVGDRVTITCRASQDVGTAVVWYQQKPGKAPKLLIYWASSRHEGVPSRFSGSGSGTDFTLTISSLQPEDFATYFCQQYSRYPLTFGQGTKLEIK
0.71 | 3.96 |  |  | humanized 5B9 variant VH2/VK1 (antibody, V domains shown) VH: QVQLVQSGAEVKKPGASVKISCKATGYTFSNYWIEWIKQAPGQGLEWIGEIFPGSGRINFNEKFKGRATFTADTSIDTTYMELSRLRSDDTAVYYCARTKIYGNSFDYWGQGTLVTVSS VL: DIMMTQSPSFLSASVGDRVTITCKASQDVGTAVVWYQQKPGKAPKLLIYWASSRHEGVPDRFTGSGSGTDFTLTISSLQSEDFADYFCQQYSRYPLTFGQGTKLEIK

Source: patent US20260152568A1 (NECTIN THERAPEUTICS, published 2026)
